Here are results for eleven molecules from US11219221B2 (FarmHannong Co., Ltd., priority 2017, dated 2022).

Substitutions are numbered along the chain they refer to. Names and notes keep the numbering of the source.

B1: A162L + V305M + F360M (protein)
chain: MLDSLIVGAGISGLSAAHTLQKQQTQFLVTESQGRVGGNITTNRQGDYLWEEGPNSFAPTEDLLRLAVEVGLKEDLVFADRRLPRFVYWNQQLHPVPMSPPAALKTQLLSEAGKWRAALGALGFVGGLVGREEETVRQFFTRHLGTEVTERLVAPFVSGVYLGDVDQLSAQAAFRRVFEFAQLGGGLAAGGILARRQAPPKAPPDPSLPETKTGQLGSFREGLEMLPRAIASQLGDRLKLQWRLTHLEITPQQTYLAHFNTPDGPQQIATRTLILTTPAPITADLLKPLTPALHGVLKEIYYPPMACVVLAYPRAASARPLEGFGHLIPRNQGIRTLGTIWSSCLFPGRTPEGEHLLTNMIGGATDPGIAQLDPEEIAQAVHQDLCKILIRPEFTPKILAVRLWKQAIPQYTLGHLQRLATLEQELSKFPGLHILANYTDGVALGDCVKRGVAVAQKIRSRE
modifications: Synthetic (Protoporphyrinogen IX oxidase (CyPPO16) of Spirulina subsalsa)
B2: V160C + A162C + V305M + L327T + F360M (protein)
chain: B1 chain with V160C, L162C, L327T
modifications: Synthetic (Protoporphyrinogen IX oxidase (CyPPO16) of Spirulina subsalsa)
B3: A162C + V305M + L327T + F360M (protein)
chain: B1 chain with L162C, L327T
modifications: Synthetic (Protoporphyrinogen IX oxidase (CyPPO16) of Spirulina subsalsa)
B4: R85A + V160C + A162L + V305M + F360M (protein)
chain: B1 chain with R85A, V160C
modifications: Synthetic (Protoporphyrinogen IX oxidase (CyPPO16) of Spirulina subsalsa)
B5: V305M + L327T + F360M (protein)
chain: B1 chain with L162A, L327T
modifications: Synthetic (Protoporphyrinogen IX oxidase (CyPPO16) of Spirulina subsalsa)
B6: V304M + F359I: CyPPO17 variant (protein)
chain: MEVDVAIVGGGLSGLSVAWRLQQSAPQYSGVLLEASDRLGGNITTQGAEGFVWELGPNSFAPTPALLQLIAEVGLHSELIRGDRHLPRYIYWRGELYPLEPTRPLALATSNLLSPWGKVRAALGALGFVPPYLGSGDESVNSFFRRHLGQEVAERLVAPFVSGVYAGDPQQLSAAAAFRRIAQLEKLGGGLIAGALRLRRQQPPKPRPPAEVQMRPGELGSFKEGLAALPRAIAQQLKAPVHLQTPVEAITPEPNGGYLLRSGEQTWQARSVVLATPAYQTAALVAPFQPAIARVLAAIPYPTMACVVLAYPAGLGRSVRPGFGVLIPRGQGIRTLGTIWSSCLFPQRTPAGWQVFTSIIGGATDPDLASLREEAIVQQVQQDLTRLLDLPAAKARLLGMKVWRRAIPQYLVGYPQQWQQVTHALSQTPGLFLCSNYAEGVALGDRVEHGNRTAAAVAAYLSGGQS
modifications: Synthetic (Protoporphyrinogen IX oxidase (CyPPO17) of Thermosynechococcus sp. NK55a)
notes: CyPPO17 variant
B7: R88A + V164C + A166L + L326T + F359M: CyPPO17 variant (protein)
chain: B6 chain with R88A, V164C, A166L, M304V, L326T, I359M
modifications: Synthetic (Protoporphyrinogen IX oxidase (CyPPO17) of Thermosynechococcus sp. NK55a)
notes: CyPPO17 variant
B8: V164C + A166L + L326T + F359M: CyPPO17 variant (protein)
chain: B6 chain with V164C, A166L, M304V, L326T, I359M
modifications: Synthetic (Protoporphyrinogen IX oxidase (CyPPO17) of Thermosynechococcus sp. NK55a)
notes: CyPPO17 variant
B9: R88A + V164C + A166C + V304M + L326T + F359M: CyPPO17 variant (protein)
chain: B6 chain with R88A, V164C, A166C, L326T, I359M
modifications: Synthetic (Protoporphyrinogen IX oxidase (CyPPO17) of Thermosynechococcus sp. NK55a)
notes: CyPPO17 variant
B10: V164C + A166L + V304M + L326T + F359M: CyPPO17 variant (protein)
chain: B6 chain with V164C, A166L, L326T, I359M
modifications: Synthetic (Protoporphyrinogen IX oxidase (CyPPO17) of Thermosynechococcus sp. NK55a)
notes: CyPPO17 variant
B11: V304M + L326T + F359M: CyPPO17 variant (protein)
chain: B6 chain with L326T, I359M
modifications: Synthetic (Protoporphyrinogen IX oxidase (CyPPO17) of Thermosynechococcus sp. NK55a)
notes: CyPPO17 variant

One assay relates to CyPPO16. Description: Herbicide tolerance test of CyPPO16 wild type and variants in PPO-deficient E. coli BT3(ΔPPO). The note with it: BT3(ΔPPO) transformants, two or more amino acid mutations; dark, 37° C., 16 to 20 hours; relative to wild type at highest concentration (50, 200 μM). It is filed as cell-based, Spirulina subsalsa. The protocol: (§1) The mutated CyPPO gene obtained from the Example 2 was transformed to BT3 (ΔPPO) strain which is deficient of PPO activity and cultured in LB media with PPO-inhibiting herbicide, thereby examining whether growth of transformed BT3 was not inhibited.
(§2) BT3 competent cells were transformed with the pET303-CyPPO16 and pET303-CyPPO17 plasmids and those with a mutation(s) constructed in Example 2 respectively, and were cultured in LB agar media containing carbenicillin (Gold Biotechnology, Co., Ltd.).
(§3) Single colony of E. coli transformed with each CyPPO gene was cultured in 3 ml of LB broth containing carbenicillin overnight, and then was subcultured until absorbance (0D600) reached 0.5 to 1. Then, it was diluted with LB broth to OD600=0.5. Again, the diluted solution was serially diluted 4 times by a factor of one tenth.
(§4) The LB agar media (LB 25 g/l, Bacto agar 15 g/l) containing carbenicillin (100 μg/ml) and 0 to 4,000 μM of various herbicides dissolved in DMSO was prepared. Next, 10 μl of each diluted solution was dropped on the plate and cultured at 37° C. under light (Tables 7 and 9, FIGS. 2 to 6, and 18 to 22) or dark (Tables 8 and 10, FIGS. 7 to 17, and 23 to 33) for 16 to 20 hours. Then, extent of tolerance was evaluated.
(§5) The extent of herbicide tolerance of the mutated genes was evaluated by comparing that of mutated genes with that of wild type. The relative tolerance was represented with “+” as a factor of 10 times. Evaluation result was listed in Tables 7 to10 and FIGS. 2 to 33:
(§6) In Tables 7 to 10, tolerance level was presented as of tolerance of wild type and of variants equivalent to that of wild type, and was done as ‘+’ per each 10 fold resistance until ‘+++++’ as maximal resistance. (Tolerance level was evaluated by relative growth level of variants to that of wild type in the media containing highest concentration of herbicide; ‘+’=1-9 fold higher tolerance, ‘++’=10-99 fold higher tolerance, ‘+++’=100-999 fold higher tolerance, ‘++++’=1,000-9,999 fold higher tolerance, ‘+++++’=more than 10,000 fold higher tolerance)
(§7) The concentrations of herbicides were written above the photographs of tolerance test. A dilution series (0D600=0.5, 0.05, 0.005, 0.0005, 0.00005) was made and spotted on LB agar plates supplemented with herbicides.
Take B1: the “Herbicide tolerance, tiafenacil” value is recorded as “+++++ (‘+++++’=more than 10,000 fold higher tolerance)”.

In the case of B2, the “Herbicide tolerance, tiafenacil” value is “+++++ (‘+++++’=more than 10,000 fold higher tolerance)”.

As for B3, the “Herbicide tolerance, tiafenacil” value is “+++++ (‘+++++’=more than 10,000 fold higher tolerance)”.

With B4, the “Herbicide tolerance, tiafenacil” value is “+++++ (‘+++++’=more than 10,000 fold higher tolerance)”.

With B5, the “Herbicide tolerance, tiafenacil” value is reported as “+++++ (‘+++++’=more than 10,000 fold higher tolerance)”.

Staying with this assay, now noted: BT3(ΔPPO) transformants, two or more amino acid mutations; dark; relative to wild type at highest concentration (25, 50 μM).
As to B1, the “Herbicide tolerance, flumioxazin” value was “+++++ (‘+++++’=more than 10,000 fold higher tolerance)”.

Turning to B2, the “Herbicide tolerance, flumioxazin” value is “+++++ (‘+++++’=more than 10,000 fold higher tolerance)”.

Consider B3, for which the “Herbicide tolerance, flumioxazin” value was “+++++ (‘+++++’=more than 10,000 fold higher tolerance)”.

For the molecule B4, the “Herbicide tolerance, flumioxazin” value is “+++++ (‘+++++’=more than 10,000 fold higher tolerance)”.

B5: the “Herbicide tolerance, flumioxazin” value is on record as “+++++ (‘+++++’=more than 10,000 fold higher tolerance)”.

Staying with this assay, now noted: BT3(ΔPPO) transformants, two or more amino acid mutations; dark; relative to wild type at highest concentration (2000, 4000 μM).
Turning to B1, the “Herbicide tolerance, sulfentrazone” value is recorded as “++++ (‘++++’=1,000-9,999 fold higher tolerance)”.

On to B2, for which the “Herbicide tolerance, sulfentrazone” value was “+++++ (‘+++++’=more than 10,000 fold higher tolerance)”.

Turning to B3, the “Herbicide tolerance, sulfentrazone” value is recorded as “++++ (‘++++’=1,000-9,999 fold higher tolerance)”.

Regarding B4, the “Herbicide tolerance, sulfentrazone” value is “+++++ (‘+++++’=more than 10,000 fold higher tolerance)”.

As to B5, the “Herbicide tolerance, sulfentrazone” value is listed as “++++ (‘++++’=1,000-9,999 fold higher tolerance)”.

Another assay has as its system CyPPO17. In words: Herbicide tolerance test of CyPPO17 wild type and variants in PPO-deficient E. coli BT3(ΔPPO). The assay is classed as cell-based, Thermosynechococcus sp. NK55a. The note with it: BT3(ΔPPO) transformants, two or more amino acid mutations; dark, 37° C., 16 to 20 hours; relative to wild type at highest concentration (50, 200 μM). The protocol: as §1, §2, §3, §4, §5, §6, §7
With B6, the “Herbicide tolerance, tiafenacil” value is reported as “+++ (‘+++’=100-999 fold higher tolerance)”.

Take B7: the “Herbicide tolerance, tiafenacil” value is reported as “+++++ (‘+++++’=more than 10,000 fold higher tolerance)”.

Take B8: the “Herbicide tolerance, tiafenacil” value is “+++++ (‘+++++’=more than 10,000 fold higher tolerance)”.

For B9, the “Herbicide tolerance, tiafenacil” value is on record as “+++++ (‘+++++’=more than 10,000 fold higher tolerance)”.

Take B10: the “Herbicide tolerance, tiafenacil” value was “+++++ (‘+++++’=more than 10,000 fold higher tolerance)”.

For B11, the “Herbicide tolerance, tiafenacil” value was “++++ (‘++++’=1,000-9,999 fold higher tolerance)”.

The same assay, now with this note: BT3(ΔPPO) transformants, two or more amino acid mutations; dark; relative to wild type at highest concentration (100, 200 μM).
For B6, the “Herbicide tolerance, flumioxazin” value is listed as “+++ (‘+++’=100-999 fold higher tolerance)”.

For B7, the “Herbicide tolerance, flumioxazin” value is given as “+++++ (‘+++++’=more than 10,000 fold higher tolerance)”.

Consider B8, for which the “Herbicide tolerance, flumioxazin” value is given as “+++++ (‘+++++’=more than 10,000 fold higher tolerance)”.

For B9, the “Herbicide tolerance, flumioxazin” value was “+++++ (‘+++++’=more than 10,000 fold higher tolerance)”.

For the molecule B10, the “Herbicide tolerance, flumioxazin” value was “+++++ (‘+++++’=more than 10,000 fold higher tolerance)”.

With B11, the “Herbicide tolerance, flumioxazin” value is on record as “++++ (‘++++’=1,000-9,999 fold higher tolerance)”.

The assay is the same for the next values; noted with them: BT3(ΔPPO) transformants, two or more amino acid mutations; dark; relative to wild type at highest concentration (200, 400 μM).
As for B6, the “Herbicide tolerance, sulfentrazone” value is listed as “++ (‘++’=10-99 fold higher tolerance)”.

In the case of B7, the “Herbicide tolerance, sulfentrazone” value was “++++ (‘++++’=1,000-9,999 fold higher tolerance)”.

In the case of B8, the “Herbicide tolerance, sulfentrazone” value was “++++ (‘++++’=1,000-9,999 fold higher tolerance)”.

Turning to B9, the “Herbicide tolerance, sulfentrazone” value is “++++ (‘++++’=1,000-9,999 fold higher tolerance)”.

Regarding B10, the “Herbicide tolerance, sulfentrazone” value is “++++ (‘++++’=1,000-9,999 fold higher tolerance)”.

Regarding B11, the “Herbicide tolerance, sulfentrazone” value is on record as “+++ (‘+++’=100-999 fold higher tolerance)”.
